Measurements published in US20160122430A1 (AbbVie / Abbott, published 2016).

Key:
human CS1 ECD-huIgG1 = biological target: T1, human CS1 ECD-huIgG1 (human, UniProt Q9NQ25 23-226); assay: hybridoma screen of Example 1 (ELISA on ECD-huIgG1 fusions, flow cytometry on OPM-2 cells); member named in Table 5
T1 construct: Its preparation is not described; also called HuCS1Fc; HuCS1-Fc; not shown: constant region of human IgG1 (huIgG1 Fc)
Protocol: Specificity of antibodies secreted by hybridomas was determined by binding to human CS1 ECD-huIgG1 and CmCS1 ECD-huIgG1, and not to negative control CLL1 ECD-huIgG1 by ELISA. […] Hybridoma supernatants were allowed to bind to the proteins and detected with an HRP conjugated donkey anti mouse IgG (H+L) antibody. Hybridomas that recognized both human and cynomolgus but not CLL fusion proteins were further tested for binding to the huCS1 molecule on an endogenously expressing OPM-2 cells using standard flow cytometry protocols. Briefly, OPM-2 cells were incubated with hybridoma supernatants for 30 minutes on ice. After extensive washing, cells were incubated with phycoerythrin conjugated goat anti mouse IgG specific antibodies for 30 minutes on ice. Cells were washed again and analyzed on a Becton Dickinson FACSCalibur for the presence of cell surface bound antibodies.

human CS1 (HuCS1) [1] = biological target: T2, human CS1 (HuCS1) (human, UniProt Q9NQ25 23-335); assay: FACS, binding relative to Hu34C3; cells not given
T2 construct: also called FL-HuCS1; SLAMF7

human CS1 (HuCS1) [2] = biological target: T2, human CS1 (HuCS1); assay: flow cytometry on L-363 cells; maximum fluorescent value at any tested concentration
Protocol: (§1) L-363 cells were incubated with different amounts of test antibody on ice for 30 min. Cells were washed three times with PBS+1% FBS. A PE-conjugated goat anti-human Fc antibody was added to the cells and incubated for 30 min on ice. Cells were washed three times with PBS+1% FBS, and binding was quantitated by flow cytometry.

human CS1 (HuCS1) [3] = biological target: T2, human CS1 (HuCS1); assay: flow cytometry on L-363 cells, PE goat anti-human Fc detection
Protocol: as §1

human CS1 (HuCS1) [4] = biological target: T2, human CS1 (HuCS1); assay: flow cytometry on L-363 cells; GeoMean (max) relative to elotuzumab
Protocol: as §1

human CS1 (HuCS1) [5] = biological target: T2, human CS1 (HuCS1); assay: flow cytometry on 293s cells transfected with human CS1

B1: CS1.AD159.27A12 (antibody, V domains shown)
VH: EVKLVESEGGLVQPGSSMKLSCTASGFTFSDYYMAWVRQVPEKGLEWVAEINYDGSSTYYLDSLKSRFIISRDNAKNILYLQMSNLKSEDTATYYCARDRGFYFDYWGQGTTLTVSS
VL: DVVMTQTPLSLPVSLGDQASISCRSSQSLVHNNGNTYLHWYLQKPGQSPKLLIYKVSNRFSGVPDRFSGSGSGTDFTLKISRVEAEDLGVYFCSQSTHVPPYTFGGGTKLEIK
notes: Murine hybridoma antibody; also called Mu27A12
**Q.** Does B1 bind (human CS1 ECD-huIgG1)?
**A.** Result: binds

B2: Hu34C3 S55E (antibody, V domains shown)
VH: EVQLVESGGGLVQPGGSLRLSCAASGFTFSDYYMAWVRQAPGKGLEWVASINYDGESTYYVDSVKGRFTISRDNAKNSLYLQMNSLRAEDTAVYYCARDRGYYFDYWGQGTTVTVSS
VL: DVVMTQTPLSLSVTPGQPASISCRSSQSLVHSNGNTYLHWYLQKPGQSPQLLIYKVSNRFSGVPDRFSGSGSGTDFTLKISRVEAEDVGVYFCSQSTHVPPFTFGGGTKVEIK
**Q.** With B2 as the binder, how does the “% Binding” value (human CS1 (HuCS1) [1]) read?
**A.** The value was 125%.

B3: CS1.AD159.34C3 (antibody, V domains shown)
VH: EVKLVESEGGLVQPGSSMKLSCTASGFTFSDYYMAWVRQVPEKGLEWVASINYDGSSTYYLDSLKSRFIISRDNAKNILFLQMNSLKSEDTATYYCARDRGYYFDYWGQGTTLTVSS
VL: DVVMTQTPLSLPVSLGDQASISCRSSQSLVHSNGNTYLHWYLQKPGQSPKLLIYKVSNRFSGVPDRFSGSGSGTDFTLKISRVEAEDLGVYFCSQSTHVPPFTFGGGTKLEIK
notes: Murine hybridoma antibody; also called Mu34C3
**Q.** Does B3 bind (human CS1 ECD-huIgG1)?
**A.** Result: binds

B4: HuCS1.27A12 (antibody, V domains shown)
VH: EVQLVESGGGLVQPGGSLRLSCAASGFTFSDYYMAWVRQAPGKGLEWVAEINYDGSSTYYVDSVKGRFTISRDNAKNSLYLQMNSLRAEDTAVYYCARDRGFYFDYWGQGTTVTVSS
VL: DVVMTQTPLSLSVTPGQPASISCRSSQSLVHNNGNTYLHWYLQKPGQSPQLLIYKVSNRFSGVPDRFSGSGSGTDFTLKISRVEAEDVGVYFCSQSTHVPPYTFGGGTKVEIK
notes: Humanized antibody; It has a human Fc (detected with anti-human Fc); also called Hu27A12
**Q.** Which “GeoMean (max)” value (human CS1 (HuCS1) [2]) does the source give for B4 here?
**A.** The value was 24.8.

**Q.** And the EC50 (human CS1 (HuCS1) [3])?
**A.** The EC50 was 4.7 nM.

**Q.** What about the “% of Elotuzumab” value (human CS1 (HuCS1) [4]) of the same binder?
**A.** The value was 142%.

B5: Hu34C3 S55E/N30L (antibody, V domains shown)
VH: EVQLVESGGGLVQPGGSLRLSCAASGFTFSDYYMAWVRQAPGKGLEWVASINYDGESTYYVDSVKGRFTISRDNAKNSLYLQMNSLRAEDTAVYYCARDRGYYFDYWGQGTTVTVSS
VL: DVVMTQTPLSLSVTPGQPASISCRSSQSLVHSNGLTYLHWYLQKPGQSPQLLIYKVSNRFSGVPDRFSGSGSGTDFTLKISRVEAEDVGVYFCSQSTHVPPFTFGGGTKVEIK
notes: Double mutant of Hu34C3
**Q.** How did the “% Binding” value (human CS1 (HuCS1) [1]) turn out when B5 was run?
**A.** Its value is 134%.

B6: CS1.AD159.14C11 (antibody, V domains shown)
VH: EVKLVESEGGLVQPGSSMKLSCTASGFTFSDYYMAWVRQVPEKGLEWVASINYDGSSTYYLDSLKSRFIISRDNAKNILYLQMSGLKSEDTATYSCARDRGFYFDYWGQGTTLTVSS
VL: DVVMTQTPLSLPVSLGDQASISCRSSQSLVHRNGNTYLHWYLQKPGQSPKLLIYKVSNRFSGVPDRFSGSGSGTDFTLKISRVEAEDLGVYFCSQSTHVPPYTFGGGTKLEIK
notes: Murine hybridoma antibody; also called Mu14C11
**Q.** Does B6 bind (human CS1 ECD-huIgG1)?
**A.** Result: binds

B7: HuCS1.31D2.2 (antibody, V domains shown)
VH: EVQLVESGGGLVQPGGSLRLSCAASGFTFSDYYMAWVRQAPGKGLEWVADINYDGGSTYYLDSLKSRFTISRDNAKNSLYLQMNSLRAEDTAVYYCARDRGYYFDYWGQGTLVTVSS
VL: DVVMTQSPLSLPVTPGEPASISCRSSQSLVHSNGNTYLHWYLQKPGQSPQLLIYKVSNRFSGVPDRFSGSGSGTDFTLKISRVEAEDVGVYFCSQSTHVPPFTFGGGTKVEIK
notes: Humanized antibody; It has a human Fc (detected with anti-human Fc); also called Hu31D2
**Q.** With B7 as the binder, how does the “GeoMean (max)” value (human CS1 (HuCS1) [2]) read?
**A.** Its value is 28.

**Q.** And the EC50 (human CS1 (HuCS1) [3])?
**A.** Its EC50 is 3.1 nM.

**Q.** And the “% of Elotuzumab” value (human CS1 (HuCS1) [4])?
**A.** The value was 160%.

B8: Hu34C3 N30L (antibody, V domains shown)
VH: EVQLVESGGGLVQPGGSLRLSCAASGFTFSDYYMAWVRQAPGKGLEWVASINYDGSSTYYVDSVKGRFTISRDNAKNSLYLQMNSLRAEDTAVYYCARDRGYYFDYWGQGTTVTVSS
VL: DVVMTQTPLSLSVTPGQPASISCRSSQSLVHSNGLTYLHWYLQKPGQSPQLLIYKVSNRFSGVPDRFSGSGSGTDFTLKISRVEAEDVGVYFCSQSTHVPPFTFGGGTKVEIK
**Q.** With B8 as the binder, how does the “% Binding” value (human CS1 (HuCS1) [1]) read?
**A.** Its value is 128%.

B9: CS1.AD159.31D2 (antibody, V domains shown)
VH: EVKLVESEGGLVQPGSSMKLSCTASGFTFSDYYMAWVRQVPEKGLEWVADINYDGGSTYYLDSLKSRFIISRDNAKNILCLQMSSLKSEDTATYYCARDRGYYFDYWGQGTTLTVSS
VL: DVVMTQTPLSLPVSLGDQASISCRSSQSLVHSNGNTYLHWYLQKPGQSPKLLIYKVSNRFSGVPDRFSGSGSGTDFTLKISRVEAEDLGVYFCSQSTHVPPFTFGGGTKLEIK
notes: Murine hybridoma antibody; also called Mu31D2
**Q.** Does B9 bind (human CS1 ECD-huIgG1)?
**A.** Result: binds

B10: CS1.AD159.12D10 (antibody, V domains shown)
VH: EVKLVESEGGLVQPGSSMKLSCTASGFTFSDYFMAWVRQVPEKGLEWVASINYDGNSTYFLDSLKSRFIISRDNAKNILYLQMSSLKSEDTATYYCARDRGFYFDYWGQGTTLTVSS
VL: DVVMTQTPLSLPVSLGDQASISCRFSQSLVHRNGNTYLHWYLQKPGQSPKLLIYKVSNRFSGVPDRFSGSGSGTDFTLKISRVEAEDLGVYFCSQSTHVRPYTFGGGTKLEIR
notes: Murine hybridoma antibody; also called Mu12D10
**Q.** Does B10 bind (human CS1 ECD-huIgG1)?
**A.** Result: binds

B11: HuCS1.34C3 (antibody, human IgG1, kappa, V domains shown)
VH: EVQLVESGGGLVQPGGSLRLSCAASGFTFSDYYMAWVRQAPGKGLEWVASINYDGSSTYYVDSVKGRFTISRDNAKNSLYLQMNSLRAEDTAVYYCARDRGYYFDYWGQGTTVTVSS
VL: DVVMTQTPLSLSVTPGQPASISCRSSQSLVHSNGNTYLHWYLQKPGQSPQLLIYKVSNRFSGVPDRFSGSGSGTDFTLKISRVEAEDVGVYFCSQSTHVPPFTFGGGTKVEIKR
notes: Humanized IgG1; also called Hu34C3
**Q.** What does the source list for B11?
**A.** GeoMean (max) (human CS1 (HuCS1) [2]): 43.5; EC50 (human CS1 (HuCS1) [3]): 2.5 nM; concentration at which 80% of maximal binding occurred (human CS1 (HuCS1) [5]): 10 µg/mL; % of Elotuzumab (human CS1 (HuCS1) [4]): 249%

B12: elotuzumab (antibody, IgG1, V domains shown)
VH: EVQLVESGGGLVQPGGSLRLSCAASGFDFSRYWMSWVRQAPGKGLEWIGEINPDSSTINYAPSLKDKFIISRDNAKNSLYLQMNSLRAEDTAVYYCARPDGNYWYFDVWGQGTLVTVSS
VL: DIQMTQSPSSLSASVGDRVTITCKASQDVGIAVAWYQQKPGKVPKLLIYWASTRHTGVPDRFSGSGSGTDFTLTISSLQPEDVATYYCQQYSSYPYTFGQGTKVEIKR
notes: also called HuLuc63
**Q.** Which results are given for B12?
**A.** GeoMean (max) (human CS1 (HuCS1) [2]): 17.5; EC50 (human CS1 (HuCS1) [3]): 35.9 nM; % of Elotuzumab (human CS1 (HuCS1) [4]): 100%
